Measured values reported in PMC10367113 (Nature chemical biology, 2022).

T1: Bl_Endo85 (Bifidobacterium longum, UniProt Q8G4P3)
T1 sequence (Q8G4P3 38-937): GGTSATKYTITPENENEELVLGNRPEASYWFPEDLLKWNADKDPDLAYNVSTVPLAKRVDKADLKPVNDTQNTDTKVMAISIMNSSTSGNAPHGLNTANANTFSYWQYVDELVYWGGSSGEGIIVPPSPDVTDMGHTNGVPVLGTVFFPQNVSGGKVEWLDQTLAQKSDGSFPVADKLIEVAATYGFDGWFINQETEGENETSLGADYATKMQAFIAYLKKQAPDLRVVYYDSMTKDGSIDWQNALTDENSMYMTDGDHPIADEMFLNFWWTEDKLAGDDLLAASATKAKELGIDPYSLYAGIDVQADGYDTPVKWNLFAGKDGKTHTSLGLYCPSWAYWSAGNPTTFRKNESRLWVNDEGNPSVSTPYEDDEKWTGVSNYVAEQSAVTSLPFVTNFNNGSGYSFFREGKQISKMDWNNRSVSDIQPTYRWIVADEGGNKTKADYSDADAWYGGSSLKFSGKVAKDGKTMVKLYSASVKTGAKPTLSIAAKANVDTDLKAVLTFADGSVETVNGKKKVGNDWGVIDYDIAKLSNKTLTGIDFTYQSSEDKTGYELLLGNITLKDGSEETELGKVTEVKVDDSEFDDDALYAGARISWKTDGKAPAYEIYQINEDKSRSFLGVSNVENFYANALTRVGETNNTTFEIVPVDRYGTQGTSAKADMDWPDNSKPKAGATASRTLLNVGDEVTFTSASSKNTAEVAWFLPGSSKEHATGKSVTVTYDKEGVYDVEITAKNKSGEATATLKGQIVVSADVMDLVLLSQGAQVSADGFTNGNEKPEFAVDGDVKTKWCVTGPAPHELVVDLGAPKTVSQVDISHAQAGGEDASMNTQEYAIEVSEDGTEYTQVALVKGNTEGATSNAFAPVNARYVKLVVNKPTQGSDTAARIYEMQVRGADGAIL

T2: Bl_Man38B (Bifidobacterium longum, UniProt Q8G4Q0)
T2 sequence (Q8G4Q0 1-1046): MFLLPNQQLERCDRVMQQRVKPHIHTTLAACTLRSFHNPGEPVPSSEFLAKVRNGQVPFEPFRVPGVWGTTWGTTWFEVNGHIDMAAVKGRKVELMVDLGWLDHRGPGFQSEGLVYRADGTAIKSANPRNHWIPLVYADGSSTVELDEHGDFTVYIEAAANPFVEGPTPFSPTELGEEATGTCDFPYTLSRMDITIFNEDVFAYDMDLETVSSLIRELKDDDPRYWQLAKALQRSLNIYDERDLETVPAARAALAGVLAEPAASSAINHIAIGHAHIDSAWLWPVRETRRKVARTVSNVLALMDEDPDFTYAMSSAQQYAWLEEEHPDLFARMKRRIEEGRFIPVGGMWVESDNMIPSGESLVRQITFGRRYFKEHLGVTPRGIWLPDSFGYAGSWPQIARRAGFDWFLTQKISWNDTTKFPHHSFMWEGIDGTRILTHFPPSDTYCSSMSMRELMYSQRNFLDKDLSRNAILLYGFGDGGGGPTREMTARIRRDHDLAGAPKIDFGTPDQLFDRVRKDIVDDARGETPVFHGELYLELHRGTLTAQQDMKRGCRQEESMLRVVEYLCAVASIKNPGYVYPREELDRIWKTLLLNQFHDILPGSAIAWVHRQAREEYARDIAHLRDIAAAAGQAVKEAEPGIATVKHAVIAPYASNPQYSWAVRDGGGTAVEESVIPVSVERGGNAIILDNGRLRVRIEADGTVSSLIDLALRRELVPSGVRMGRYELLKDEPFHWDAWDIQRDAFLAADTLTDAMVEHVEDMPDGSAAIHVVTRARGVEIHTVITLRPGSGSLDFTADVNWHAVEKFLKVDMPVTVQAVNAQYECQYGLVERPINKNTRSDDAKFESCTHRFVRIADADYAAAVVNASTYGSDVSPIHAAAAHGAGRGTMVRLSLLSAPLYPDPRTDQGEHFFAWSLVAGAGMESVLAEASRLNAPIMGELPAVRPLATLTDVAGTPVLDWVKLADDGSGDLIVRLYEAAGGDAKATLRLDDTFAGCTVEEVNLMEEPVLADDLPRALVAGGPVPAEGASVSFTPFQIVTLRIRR


Columns and labels:
Bl_Endo85 = target: T1, Bl_Endo85; assay: LC-MS; type: biochemical; settings: 150 mM ammonium acetate pH 5.0, 37 °C, 16 h; product GlcMan9GlcNAc
Bl_Man38B = target: T2, Bl_Man38B; assay: LC-MS hydrolysis kinetics; type: biochemical; settings: pH 5.5, 37 °C, 0.1 mM CoCl2
cryo-EM structure = target: the molecule itself; assay: cryo-EM structure

Molecule	stoichiometry N (cryo-EM structure)	also measured
CC(=O)N[C@H]1[C@H](O[C@H]2[C@H](O)[C@@H](NC(C)=O)C(O)O[C@@H]2CO)O[C@H](CO)[C@@H](O[C@@H]2O[C@H](CO[C@H]3O[C@H](CO[C@H]4O[C@H](CO)[C@@H](O)[C@H](O)[C@@H]4O[C@H]4O[C@H](CO)[C@@H](O)[C@H](O)[C@@H]4O)[C@@H](O)[C@H](O[C@H]4O[C@H](CO)[C@@H](O)[C@H](O)[C@@H]4O[C@H]4O[C@H](CO)[C@@H](O)[C@H](O)[C@@H]4O)[C@@H]3O)[C@@H](O)[C@H](O[C@H]3O[C@H](CO)[C@@H](O)[C@H](O)[C@@H]3O[C@H]3O[C@H](CO)[C@@H](O)[C@H](O)[C@@H]3O[C@H]3O[C@H](CO)[C@@H](O)[C@H](O[C@H]4O[C@H](CO)[C@@H](O)[C@H](O)[C@H]4O)[C@@H]3O)[C@@H]2O)[C@@H]1O (some centres unmarked) [GlcMan9GlcNAc2]	–	LC-MS (Bl_Endo85): Reaction of Bl_Endo85 against GlcMan9GlcNAc2, generating GlcMan9GlcNAc
OC[C@H]1O[C@H](O[C@H]2[C@H](O)[C@@H](CO)OC(O)[C@H]2O)[C@@H](O)[C@@H](O)[C@@H]1O (stereo partly drawn) [α-1,3-mannobiose]	–	Km (Bl_Man38B): Bl_Man38B was efficient over the three disaccharides
Bl_Man38B, GH38 α-mannosidase from Bifidobacterium longum NCC2705 (enzyme) MFLLPNQQLERCDRVMQQRVKPHIHTTLAACTLRSFHNPGEPVPSSEFLAKVRNGQVPFEPFRVPGVWGTTWGTTWFEVNGHIDMAAVKGRKVELMVDLGWLDHRGPGFQSEGLVYRADGTAIKSANPRNHWIPLVYADGSSTVELDEHGDFTVYIEAAANPFVEGPTPFSPTELGEEATGTCDFPYTLSRMDITIFNEDVFAYDMDLETVSSLIRELKDDDPRYWQLAKALQRSLNIYDERDLETVPAARAALAGVLAEPAASSAINHIAIGHAHIDSAWLWPVRETRRKVARTVSNVLALMDEDPDFTYAMSSAQQYAWLEEEHPDLFARMKRRIEEGRFIPVGGMWVESDNMIPSGESLVRQITFGRRYFKEHLGVTPRGIWLPDSFGYAGSWPQIARRAGFDWFLTQKISWNDTTKFPHHSFMWEGIDGTRILTHFPPSDTYCSSMSMRELMYSQRNFLDKDLSRNAILLYGFGDGGGGPTREMTARIRRDHDLAGAPKIDFGTPDQLFDRVRKDIVDDARGETPVFHGELYLELHRGTLTAQQDMKRGCRQEESMLRVVEYLCAVASIKNPGYVYPREELDRIWKTLLLNQFHDILPGSAIAWVHRQAREEYARDIAHLRDIAAAAGQAVKEAEPGIATVKHAVIAPYASNPQYSWAVRDGGGTAVEESVIPVSVERGGNAIILDNGRLRVRIEADGTVSSLIDLALRRELVPSGVRMGRYELLKDEPFHWDAWDIQRDAFLAADTLTDAMVEHVEDMPDGSAAIHVVTRARGVEIHTVITLRPGSGSLDFTADVNWHAVEKFLKVDMPVTVQAVNAQYECQYGLVERPINKNTRSDDAKFESCTHRFVRIADADYAAAVVNASTYGSDVSPIHAAAAHGAGRGTMVRLSLLSAPLYPDPRTDQGEHFFAWSLVAGAGMESVLAEASRLNAPIMGELPAVRPLATLTDVAGTPVLDWVKLADDGSGDLIVRLYEAAGGDAKATLRLDDTFAGCTVEEVNLMEEPVLADDLPRALVAGGPVPAEGASVSFTPFQIVTLRIRR	4	–
Bl_Man38C, GH38 α-mannosidase from Bifidobacterium longum NCC2705 (enzyme) MLLKVNREIDRCKRVMRERVWPHIHQVLAQCTVGAVKNPGEPEMPAAFITRAVSGQVIFQPLAVGEPWGTSWGTTWIRVEGQLPETLPEGRAIELVFNLGWLEWPVGGHIEAMAYRADGTVIKALHPRNHWMPLVSADGVKDRVVNPDGSFVVYVEGAYNPNVPSFTVTELGTKPTGKADERYEFSSIDIAALDQDMFDYWADLDVVTGSLENMNDADPRYWKLAKAMQRSINLWDEKDYNTLALARKALDKVMHNPANASAMTLTAMGHSHIDSAWLWPVRETERKVGRTVSNALALMDIDPDFTYVMSAAQHFAWLEERHPDLFERVKARIAEGRFIPVGGMWVESDGTMPCGESLIRQISYGKRYFKEKLGVVPNGIWLPDSFGYTGAWPQIAKRSGYSWFLTQKLCWNDTTRLPHHSFMWEGVDGSQIFTHFPPADKYDSDMSANDMAYVQSNYKDKDLSDRGILLFGYGDGGGGPIREMTMREHRFESFEGMPKVEYGTPDDFFSKAETEMKAEAGSEMPRWKGEFYFELHRKTLTSQQEMKRGCRKEESMLRTVEYLGVVASLESADYVYPTERIDRIWKTLLLSQFHDILPGSAIEWAHRVAREEYARDLKALSDIARDAIAAIAVANPDVARIAKARISQFADVDPWRPASLVSCGEPVEVNRREDGSATLDNGLLCVHVAADGTVDSMIDLKSGREMVAKDHVMGRYEILKDEPGVFDAWDVERDAFLCATALADGHIVSIETTADGSAVIVTKNSYRDDEISTTITLRPGKSQLDFHADVEWNVPEKLLKVDIPMALSASRAQYECQYGLIERPIVKNTEGEEAMFESCSHRFVRIHDSSYGIGVANGSTYGSDVSSLRDRDDALAGTMVRMSLVAAPTAPDPRTDIGHHEFDWTVLPCASVAPLVAAAGEINAPTIENMPDIAAPITLEPIEGTPVIDWIKLADDGSGDIVARLYEAAGAKAKAMLHVGGTLDGWTVRETNTLEQDESYPDEPAGLIGGKQQAEGAELALNPFQLTTLRLSRA	4	–
Bl_Man38A, GH38 α-mannosidase from Bifidobacterium longum NCC2705 (enzyme) MFLKPEQQLERCRRIVRQRVDPHIHPSIAQLTVESYDIPGEPMPSDEFFAKLDRGDIDFKPFMLGSEWGTTWGTVWFRLTGTVPAGYPKGKPLELILDLGWYPHSCGGHIEGLVYRADGTAIKAVHPLNYWVPFMDAEGNAQVPVAEDGSFTLYLEAASNPLLLGVPPFIETELGDHATGKPDEPYVFKSADLAEFDERYENYSVDLDVVSSLMEFADKQSPRYWQLAKALQRSLNAYDERNPESVEAARAVLAGVLAKPANASAMNVSAIGHAHIDSAWLWPVRETRRKVARTVSNALALMDADPDFKYAMSSAQQYAWLEEDHPDIFKRMKRRIEEGRFIPVGGMWVEADGMLPAGESLIRQIAYGRKYFKEHLGVEPKGVWLPDSFGYTGAWPQIARRAGYEWFLTQKISWNDTTKFPHHSFMWEGIDGSRIFTHFPPADTYAAWCKVQELDYAEKNFQDKDLSDRSLLLFGFGDGGGGPTRNMMEHLHRYENLEGVSKVSIEEPNDFFDKAHQQLAENAGPEMPVWKGELYLELHRGTLTSQQDMKRGCRQEESLLRTVEYLGAAAVLSDPEYVYPREELDRIWKTLLLNQFHDILPGSAIAWVHREAREDYRRDLKRLAEIAQDMCAVLRKANPQADLLAEARISQFRNDGASWHANRINEPTDALSVLTQTLDNGRVLLANGVLSVTIEADGTISSLLDEEHGRELVPAGTRLGQYELLRDEPAVWDAWEIERESLLMANAVTGSIESVNTENGAAQVHVHTADGDTVITTTITLRPGSHTLDFHADIDWHERERFLKVDLPLGIVADQATYDCQYGLIRRPIVKNTASDEAKYESSTNRFAIIGDAGYAAAVINGSVYGSDASPIAGNAAEGRDSGTMFRLSLLSAPTFPDPRTDIGSHEFDWSVVADATVDRALDAAGVLNAPVLHDVPDITPLASIESVNGTVVLDWMKLADDGSGDLIVRAYEAAGGQADAMLHVCPALAGASVHETNVLEGDDLAADLPVALQDGRQNAEGATLHFGPFQLATLRITR	4	–
